Measurements published in the Human Domainome abundance scans (Beltran et al. 2025).
± gives the uncertainty stated by the source.

B1: Triacylglycerol hydrolase DDHD2, residues 389 to 447; numbered along this chain, O94830 (parent)
chain: TLEEDLKKLQLSEFFDIFEKEKVDKEALALCTDRDLQEIGIPLGPRKKILNYFSTRKNS

Variants of: B1
Assay: abundance fitness (aPCA) (normalised: wild type 0, dead -1); higher = more abundant; growth selection in yeast, the domain comes from the species named
Settings: Homo sapiens

Variant | abundance fitness
TLEADLKKLQLSEFFDIFEKEKVDKEALALCTDRDLQEIGIPLGPRKKILNYFSTRKNS [E4A] | -0.286 ± 0.067
TLEDDLKKLQLSEFFDIFEKEKVDKEALALCTDRDLQEIGIPLGPRKKILNYFSTRKNS [E4D] | -0.205 ± 0.1
TLEFDLKKLQLSEFFDIFEKEKVDKEALALCTDRDLQEIGIPLGPRKKILNYFSTRKNS [E4F] | -0.264 ± 0.1
TLEGDLKKLQLSEFFDIFEKEKVDKEALALCTDRDLQEIGIPLGPRKKILNYFSTRKNS [E4G] | -0.436 ± 0.074
TLEHDLKKLQLSEFFDIFEKEKVDKEALALCTDRDLQEIGIPLGPRKKILNYFSTRKNS [E4H] | -0.33 ± 0.098
TLEIDLKKLQLSEFFDIFEKEKVDKEALALCTDRDLQEIGIPLGPRKKILNYFSTRKNS [E4I] | -0.432 ± 0.12
TLELDLKKLQLSEFFDIFEKEKVDKEALALCTDRDLQEIGIPLGPRKKILNYFSTRKNS [E4L] | -0.371 ± 0.059
TLEMDLKKLQLSEFFDIFEKEKVDKEALALCTDRDLQEIGIPLGPRKKILNYFSTRKNS [E4M] | -0.109 ± 0.071
TLENDLKKLQLSEFFDIFEKEKVDKEALALCTDRDLQEIGIPLGPRKKILNYFSTRKNS [E4N] | -0.341 ± 0.12
TLEPDLKKLQLSEFFDIFEKEKVDKEALALCTDRDLQEIGIPLGPRKKILNYFSTRKNS [E4P] | -0.996 ± 0.11
TLEQDLKKLQLSEFFDIFEKEKVDKEALALCTDRDLQEIGIPLGPRKKILNYFSTRKNS [E4Q] | -0.103 ± 0.072
TLERDLKKLQLSEFFDIFEKEKVDKEALALCTDRDLQEIGIPLGPRKKILNYFSTRKNS [E4R] | -0.493 ± 0.056
TLESDLKKLQLSEFFDIFEKEKVDKEALALCTDRDLQEIGIPLGPRKKILNYFSTRKNS [E4S] | -0.332 ± 0.061
TLETDLKKLQLSEFFDIFEKEKVDKEALALCTDRDLQEIGIPLGPRKKILNYFSTRKNS [E4T] | -0.589 ± 0.081
TLEVDLKKLQLSEFFDIFEKEKVDKEALALCTDRDLQEIGIPLGPRKKILNYFSTRKNS [E4V] | -0.629 ± 0.072
TLEWDLKKLQLSEFFDIFEKEKVDKEALALCTDRDLQEIGIPLGPRKKILNYFSTRKNS [E4W] | -0.811 ± 0.081
TLEYDLKKLQLSEFFDIFEKEKVDKEALALCTDRDLQEIGIPLGPRKKILNYFSTRKNS [E4Y] | -0.777 ± 0.12
TLEEALKKLQLSEFFDIFEKEKVDKEALALCTDRDLQEIGIPLGPRKKILNYFSTRKNS [D5A] | -0.144 ± 0.06
TLEECLKKLQLSEFFDIFEKEKVDKEALALCTDRDLQEIGIPLGPRKKILNYFSTRKNS [D5C] | -0.033 ± 0.1
TLEEELKKLQLSEFFDIFEKEKVDKEALALCTDRDLQEIGIPLGPRKKILNYFSTRKNS [D5E] | 0.123 ± 0.058
TLEEFLKKLQLSEFFDIFEKEKVDKEALALCTDRDLQEIGIPLGPRKKILNYFSTRKNS [D5F] | 0.032 ± 0.1
TLEEGLKKLQLSEFFDIFEKEKVDKEALALCTDRDLQEIGIPLGPRKKILNYFSTRKNS [D5G] | -0.536 ± 0.06
TLEEHLKKLQLSEFFDIFEKEKVDKEALALCTDRDLQEIGIPLGPRKKILNYFSTRKNS [D5H] | 0.004 ± 0.11

Variant | abundance fitness
TLEEILKKLQLSEFFDIFEKEKVDKEALALCTDRDLQEIGIPLGPRKKILNYFSTRKNS [D5I] | -0.144 ± 0.11
TLEEKLKKLQLSEFFDIFEKEKVDKEALALCTDRDLQEIGIPLGPRKKILNYFSTRKNS [D5K] | -0.42 ± 0.085
TLEELLKKLQLSEFFDIFEKEKVDKEALALCTDRDLQEIGIPLGPRKKILNYFSTRKNS [D5L] | 0.021 ± 0.052
TLEEMLKKLQLSEFFDIFEKEKVDKEALALCTDRDLQEIGIPLGPRKKILNYFSTRKNS [D5M] | -0.194 ± 0.076
TLEENLKKLQLSEFFDIFEKEKVDKEALALCTDRDLQEIGIPLGPRKKILNYFSTRKNS [D5N] | -0.319 ± 0.1
TLEEPLKKLQLSEFFDIFEKEKVDKEALALCTDRDLQEIGIPLGPRKKILNYFSTRKNS [D5P] | -0.904 ± 0.092
TLEEQLKKLQLSEFFDIFEKEKVDKEALALCTDRDLQEIGIPLGPRKKILNYFSTRKNS [D5Q] | -0.062 ± 0.068
TLEERLKKLQLSEFFDIFEKEKVDKEALALCTDRDLQEIGIPLGPRKKILNYFSTRKNS [D5R] | -0.568 ± 0.061
TLEESLKKLQLSEFFDIFEKEKVDKEALALCTDRDLQEIGIPLGPRKKILNYFSTRKNS [D5S] | -0.016 ± 0.062
TLEETLKKLQLSEFFDIFEKEKVDKEALALCTDRDLQEIGIPLGPRKKILNYFSTRKNS [D5T] | 0.15 ± 0.069
TLEEVLKKLQLSEFFDIFEKEKVDKEALALCTDRDLQEIGIPLGPRKKILNYFSTRKNS [D5V] | -0.343 ± 0.06
TLEEYLKKLQLSEFFDIFEKEKVDKEALALCTDRDLQEIGIPLGPRKKILNYFSTRKNS [D5Y] | -0.614 ± 0.12
TLEEDAKKLQLSEFFDIFEKEKVDKEALALCTDRDLQEIGIPLGPRKKILNYFSTRKNS [L6A] | -1.1 ± 0.11
TLEEDCKKLQLSEFFDIFEKEKVDKEALALCTDRDLQEIGIPLGPRKKILNYFSTRKNS [L6C] | -0.888 ± 0.27
TLEEDDKKLQLSEFFDIFEKEKVDKEALALCTDRDLQEIGIPLGPRKKILNYFSTRKNS [L6D] | 0.082 ± 0.21
TLEEDEKKLQLSEFFDIFEKEKVDKEALALCTDRDLQEIGIPLGPRKKILNYFSTRKNS [L6E] | -0.765 ± 0.12
TLEEDFKKLQLSEFFDIFEKEKVDKEALALCTDRDLQEIGIPLGPRKKILNYFSTRKNS [L6F] | 0.134 ± 0.23
TLEEDGKKLQLSEFFDIFEKEKVDKEALALCTDRDLQEIGIPLGPRKKILNYFSTRKNS [L6G] | -0.698 ± 0.088
TLEEDHKKLQLSEFFDIFEKEKVDKEALALCTDRDLQEIGIPLGPRKKILNYFSTRKNS [L6H] | -0.754 ± 0.46
TLEEDKKKLQLSEFFDIFEKEKVDKEALALCTDRDLQEIGIPLGPRKKILNYFSTRKNS [L6K] | -0.335 ± 0.15
TLEEDMKKLQLSEFFDIFEKEKVDKEALALCTDRDLQEIGIPLGPRKKILNYFSTRKNS [L6M] | -0.208 ± 0.12
TLEEDNKKLQLSEFFDIFEKEKVDKEALALCTDRDLQEIGIPLGPRKKILNYFSTRKNS [L6N] | -0.32 ± 0.37
